This passage reports expression_or_secretion results from paper PMC6203815.

This data set is described as follows: Ni-NTA recovery from HEK293, Coomassie SDS-PAGE. As to conditions: glycan lost; control: wild-type Pfs48/45 6C.

B1: Pfs48/45 6C: S305A (protein)
parent chain: MMLYISAKKAQVAFILYIVLVLRIISGNNDFCKPSSLNSEISGFIGYKCNFSNEGVHNLKPDMRERRSIFCTIHSYFIYDKIRLIIPKKSSSPEFKILPEKCFQKVYTDYENRVETDISELGLIEYEIEENDTNPNYNERTITISPFSPKDIEFFCFCDNTEKVISSIEGRSAMVHVRVLKYPHNILFTNLTNDLFTYLPKTYNESNFVSNVLEVELNDGELFVLACELINKKCFQEGKEKALYKSNKIIYHKNLTIFKAPFYVTSKDVNTECTCKFKNNNYKIVLKPKYEKKVIHGCNFSSNVSSKHTFTDSLDISLVDDSAHISCNVHLSEPKYNHLVGLNCPGDIIPDCFFQVYQPESEELEPSNIVYLDSQINIGDIEYYEDAEGDDKIKLFGIVGSIPKTTSFTCICKKDKKSAYMTVTIDSAYYGFLAKTFIFLIVAILLYI
Take B1: the expression_or_secretion entry was “decreases”.
